Experimental findings from article PMC6336734 are described below.

The target in the experiment is Recombinant PP35 gp156 tail spike protein (Dickeya bacteriophage PP35). As to the kind of experiment: SEC. For orientation: SEC sorts molecules by how far they enter the pores of the column.

As to “Recombinant PP35 gp156 tail spike protein (natural protein)”, the stoichiometry N (commonly the number of molecules, sites or subunits per partner or assembly) was found to be 3.
